From article PMC9598796 (2022) come the findings set out here.

Usually koff stands for a measure of how fast the partners let go of each other. Lower therefore signals a long-lived complex.

This experiment addresses biotinylated Stx2a holotoxin (Shiga toxin-producing E. coli (STEC), UniProt P09385;P09386). Put plainly: BLI. (In BLI a coated tip is dipped into the sample, and binding shifts an interference pattern.)

Chain of biotinylated Stx2a holotoxin (P09385 23-319, chain 1 of 2): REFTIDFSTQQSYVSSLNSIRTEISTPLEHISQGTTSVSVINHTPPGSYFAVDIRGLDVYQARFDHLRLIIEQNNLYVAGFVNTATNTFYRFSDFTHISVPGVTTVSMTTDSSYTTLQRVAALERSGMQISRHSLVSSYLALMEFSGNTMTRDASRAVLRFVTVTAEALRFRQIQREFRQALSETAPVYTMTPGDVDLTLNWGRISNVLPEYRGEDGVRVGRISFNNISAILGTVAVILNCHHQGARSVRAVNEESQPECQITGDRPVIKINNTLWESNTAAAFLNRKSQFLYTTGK
Chain of biotinylated Stx2a holotoxin (P09386 20-89, chain 2 of 2): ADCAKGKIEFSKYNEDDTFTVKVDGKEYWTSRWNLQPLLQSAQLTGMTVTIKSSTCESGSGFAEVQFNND

B1: dimeric DARPin SD5 (#3-SHT) (designed binder)
chain: GKKLLEAARAGQDDEVRILMANGADVNACDSNGRTPLHLAAVRGHLEIVEVLLKNGADVNAWDVIGKTPLHLAADGGHLEIVEVLLKNGADVNAWDLIGRTPLHLAALDGHLEIVEVLLEHGADVNAYDRPGHTPLHLAARRGHLEIVEVLLKYGADVNAQDKFGKTAFDISIDNGNEDLAEILQGGGGSGGGGSGGGGSGGGGSGKKLLEAARAGQDDEVRILVANGADVNAGDPFGFTPLHLAALYGHLEIVEVLLKNGADVNAHEEYGFTPLHLAAVVSHMEIVEVLLNNGADVNARDNQGGSPLHLASHTGHLEIVEVLLKQGADVNAQDKFGKTAYDISIDIGNEDLAEILQ
B1: the koff was 0.0126 s⁻¹.

B2: DARPin #3 (designed binder)
chain: GKKLLEAARAGQDDEVRILMANGADVNACDSNGRTPLHLAAVRGHLEIVEVLLKNGADVNAWDVIGKTPLHLAADGGHLEIVEVLLKNGADVNAWDLIGRTPLHLAALDGHLEIVEVLLEHGADVNAYDRPGHTPLHLAARRGHLEIVEVLLKYGADVNAQDKFGKTAFDISIDNGNEDLAEILQ
The molecule B2 came in with a koff of 0.0438 s⁻¹.
